“Also recorded” adds a separate entry of the source.
B1: recombinant NELL2: purified recombinant NELL2 protein added to the culture medium (protein, UniProt Q99435 22-816, looked up)
Protein kinase C-binding …: LGVDPSLQIDVLTELELGESTTGVRQVPGLHNGTKAFLFQDTPRSIKASTATAEQFFQKLRNKHEFTILVTLKQTHLNSGVILSIHHLDHRYLELESSGHRNEVRLHYRSGSHRPHTEVFPYILADDKWHKLSLAISASHLILHIDCNKIYERVVEKPSTDLPLGTTFWLGQRNNAHGYFKGIMQDVQLLVMPQGFIAQCPDLNRTCPTCNDFHGLVQKIMELQDILAKTSAKLSRAEQRMNRLDQCYCERTCTMKGTTYREFESWIDGCKNCTCLNGTIQCETLICPNPDCPLKSALAYVDGKCCKECKSICQFQGRTYFEGERNTVYSSSGVCVLYECKDQTMKLVESSGCPALDCPESHQITLSHSCCKVCKGYDFCSERHNCMENSICRNLNDRAVCSCRDGFRALREDNAYCEDIDECAEGRHYCRENTMCVNTPGSFMCICKTGYIRIDDYSCTEHDECITNQHNCDENALCFNTVGGHNCVCKPGYTGNGTTCKAFCKDGCRNGGACIAANVCACPQGFTGPSCETDIDECSDGFVQCDSRANCINLPGWYHCECRDGYHDNGMFSPSGESCEDIDECGTGRHSCANDTICFNLDGGYDCRCPHGKNCTGDCIHDGKVKHNGQIWVLENDRCSVCSCQNGFVMCRRMVCDCENPTVDLFCCPECDPRLSSQCLHQNGETLYNSGDTWVQNCQQCRCLQGEVDCWPLPCPDVECEFSILPENECCPRCVTDPCQADTIRNDITKTCLDEMNVVRFTGSSWIKHGTECTLCQCKNGHICCSVDPQCLQEL

Legend:
BAF complexes [1] = assay: Actin in BAF complexes (immunoprecipitation, phalloidin dot blot and phalloidin pull-down); assay type: cell-based; conditions: A-673 cell nuclear extract
Protocol: Immunoprecipitation. Immunoprecipitation was performed (Shiio, Y., and Eisenman, R. N. (2003) Histone sumoylation is associated with transcriptional repression. Proc Natl Acad Sci USA). The following antibodies were used: rabbit monoclonal anti-BRG1 (ab110641, Abcam), rabbit monoclonal anti-BAF57 (33360, Cell Signaling Technologies), and mouse monoclonal anti-FLAG M2 (F1804, MilliporeSigma).
Phalloidin dot blot assays. The BAF complexes were immuno-purified from nuclear extract using anti-BRG1 or anti-BAF57, (for endogenous BAF) or anti-FLAG antibody (for FLAG-BRG1-containing BAF) and were spotted onto a nitrocellulose membrane (sample amount normalized by cell number). The membrane was allowed to dry at room temperature for 30 minutes. The membrane was rinsed with TBST (150 mM NaCl, 20 mM Tris, pH7.4, 0.05% Tween-20), blocked with 5% BSA in TBST, and incubated with Biotin-XX Phalloidin (Biotium) either overnight at 4° C. or for two hours at room temperature followed by three washes with TBST. The membrane was incubated with High Sensitivity Streptavidin-HRP (21130, Pierce/Thermo Fisher) for one hour and was washed three times with TBST, followed by detection with ECL reagent.

A-673 and EW8 cells = assay: Proliferation of NELL2- or Robo3-silenced Ewing sarcoma cells (IncuCyte); assay type: cell-based, human; conditions: A-673 cells transfected with NELL2 siRNAs, recombinant NELL2 250 ng/ml
Protocol: Transfection and viral infection. Calcium phosphate co-precipitation was used for transfection of 293T cells. Lentiviruses were prepared by transfection in 293T cells following System Biosciences' protocol, and the cells infected with lentiviruses were selected with 2 μg/mL puromycin for 48 hours. The target sequences for shRNAs are as follows: FLI1 C-terminus shRNA, […] (SEQ ID NO: 20); luciferase shRNA, […] (SEQ ID NO: 21); NELL2 shRNA-1, […] (SEQ ID NO: 22); and NELL2 shRNA-2, […] (SEQ ID NO: 23). The following siRNAs were used: human NELL2 siRNA SMARTpool (M-012185-00); Dharmacon), human Robo3 siRNA SMARTpool (M-026504-00; Dharmacon), human Robo3 siRNAs NM_022370 (SASI_Hs01_00099511, SASI_Hs01_00099512, SASI_Hs01_00099513, SASI_Hs01_00099514, SASI_Hs01_00099515 and SASI_Hs01_00099516; MilliporeSigma), human cdc42 siRNA SMARTpool (M-005057-01; Dharmacon), human CD133 siRNA SMARTpool (M-010630-01; Dharmacon), human srGAP1 siRNA SMARTpool (M-026974-00; Dharmacon), srGAP2 siRNA SMARTpool (M-021531-03; Dharmacon), human caveolin-1 siRNA SMARTpool (M-003467-01; Dharmacon), human GDF6 siRNA SMARTpool (M-0330055-01; Dharmacon), and Non-Targeting siRNA Pool #2 (D-0012Jun. 14, 2005; Dharmacon), siRNA transfection of cell lines was performed using Lipofectamine™ RNAiMAX Transfection Reagent (Thermo Fisher).
Cell proliferation and xenograft tumorigenicity assays. Anchorage-dependent cell proliferation was assessed by IncuCyte live-cell imaging system (Essen BioScience). The IncuCyte system monitors cell proliferation by analyzing the occupied area (% confluence) of cell images over time. At least four fields from four wells were assayed for each experimental condition. The cell seeding density was 2000 cells per well in a 96-well plate. […] Anchorage-independent cell proliferation was evaluated by soft agar colony formation assays. […] Colonies were grown for three weeks and counted. Colonies (>50 cells) were scored by randomly counting 10 fields per dish. […] Tumor growth was monitored weekly using a caliper. […]

BAF complexes [2] = assay: BAF subunit protein levels by immunoblotting in Ewing sarcoma cells; assay type: cell-based, human
From the text: Immunoblotting. […] The following antibodies were used: rabbit polyclonal anti-FLI1 (ab15289, Abcam); mouse monoclonal anti-FLAG M2 (F1804, MilliporeSigma): rabbit monoclonal anti-NELL2 (ab181376, Abcam); goat polyclonal anti-PGK1 (sc-17943, Santa Cruz Biotechnology); rabbit polyclonal anti-Robo3 (LS-C345713, LSBio); goat polyclonal anti-Robo3 (PA5-18714, Thermo Fisher Scientific); mouse monoclonal anti-cdc42 (ACD03, Cytoskeleton); rabbit polyclonal anti-Rac1/2/3 (2465, Cell Signaling Technologies); rabbit polyclonal anti-Rho A (2117, Cell Signaling Technologies); goat polyclonal anti-BRG1 (A303-877A, Bethyl Laboratories); rabbit monoclonal anti-BRG1 (49360, Cell Signaling Technologies); rabbit polyclonal anti-BRM (A301-014A-T, Bethyl Laboratories); mouse monoclonal anti-ARID1A/BAF250) (sc-32761, Santa Cruz Biotechnology); rabbit polyclonal anti-BAF170 (A301-039A-T, Bethyl Laboratories); rabbit monoclonal anti-BAF155 (11956, Cell Signaling Technologies); rabbit polyclonal anti-BAF60B (A301-596A-T, Bethyl Laboratories); rabbit polyclonal anti-BAF57 (A300-810A-T, Bethyl Laboratories); rabbit polyclonal anti-BAF53A (A301-391A-T, Bethyl Laboratories); rabbit monoclonal anti-BAF47 (8745, Cell Signaling Technologies); rabbit polyclonal anti-BRD9 (A303-781A-T, Bethyl Laboratories); rabbit monoclonal anti-SS18 (21792, Cell Signaling Technologies); rabbit monoclonal anti-CD133 (64326, Cell Signaling Technologies); rabbit polyclonal anti-srGAP1 (A301-286A-T, Bethyl Laboratories); rabbit polyclonal anti-srGAP2 (GTX130797, GeneTex); mouse monoclonal anti-tubulin (DMIA, Thermo Fisher Scientific); rabbit polyclonal anti-β-actin (4967, Cell Signaling Technologies); mouse monoclonal anti-Rpb1 (2629, Cell Signaling Technologies); rabbit monoclonal anti-cdc6 (3387, Cell Signaling Technologies); rabbit monoclonal anti-caveolin-1 (3267, Cell Signaling Technologies); rabbit polyclonal anti-phospho-caveolin-1 (3251, Cell Signaling Technologies); rabbit monoclonal anti-Src (2123, Cell Signaling Technologies); rabbit monoclonal anti-phospho-Src Family (6943, Cell Signaling Technologies); and rabbit polyclonal anti-GDF6 (NBP1-91934, Novus Biologicals). The following HRP-conjugated secondary antibodies were used: goat anti-rabbit (7074) and goat anti-mouse (7076) (Cell Signaling Technologies); donkey anti-goat (A50)-201P, Bethyl Laboratories).

cdc42 and Rac = assay: GST-PAKI pull-down of active cdc42 and Rac; assay type: cell-based, human; conditions: FIG. 3D
Protocol: GST pull-down assays. The active form of cdc42, Rac, and Rho A was analyzed by pull-down of whole cell lysate with GST-PAKI (active cdc42 and Rac) and GST-RBD (active Rho A) followed by immunoblotting for cdc42, Rac, and Rho A as described (Ren, X. D., et al. (1999) EMBO J 18, 578-585).

BAF complexes [3] = assay: Gel filtration chromatography of nuclear extract (BAF complex assembly); assay type: cell-based; conditions: A-673 cells; four-hour treatment
Protocol: Gel filtration chromatography. Nuclear extract was prepared as described (Carey, M. F., et al. (2009) Dignam and Roeder nuclear extract preparation. Cold Spring Harbor protocols 2009, pdb prot5330). The extract (5 mg) was loaded onto HiPrep 16/60 Sephacryl S-400 HR column (GE Healthcare) equilibrated with a gel filtration buffer (150 mM NaCl, 20 mM Hepes-KOH, 10 mM KCl, 1 mM MgCl2, 1 mM EDTA, 1 mM EGTA, 1 mM DTT, pH 7.5). Proteins were eluted at 1 ml/min and 1-ml fractions were collected. Every fourth fraction was concentrated and analyzed by immunoblotting.

CD133^low population = assay: Proliferation of sorted CD133low population (IncuCyte); assay type: cell-based, human; conditions: FIG. 5A
Protocol: Cell proliferation and xenograft tumorigenicity assays. Anchorage-dependent cell proliferation was assessed by IncuCyte live-cell imaging system (Essen BioScience). The IncuCyte system monitors cell proliferation by analyzing the occupied area (% confluence) of cell images over time. At least four fields from four wells were assayed for each experimental condition. The cell seeding density was 2000 cells per well in a 96-well plate. For each assay, biological replicates were performed to confirm the reproducibility of results. Anchorage-independent cell proliferation was evaluated by soft agar colony formation assays. A-673 cells were infected with lentiviruses expressing shRNAs against NELL2 or scrambled shRNA and were selected with 2 μg/ml puromycin. Four days after infection, 4×10^3 cells were plated in soft agar. The soft agar cultures were composed of two layers; a base layer [4 ml in a 60-mm dish; DMEM/10% fetal bovine serum/0.6% noble agar (A5431, MilliporeSigma)/penicillin/streptomycin] and a cell layer (2 ml in a 60-mm dish; DMEM/10% fetal bovine serum/0.3% noble agar/penicillin/streptomycin). Colonies were grown for three weeks and counted. Colonies (>50 cells) were scored by randomly counting 10 fields per dish. Sphere formation assays were done (Dasgupta, A., et al. (2017) Oncotarget 8, 77292-77308) using ultra-low attachment 6-well plates (Corning: seeding density 1×10^4 cells/well) and DMEM/F-12 medium supplemented with B27, human recombinant epidermal growth factor (20 ng/ml), and basic fibroblast growth factor (20 ng/ml). For xenograft tumorigenicity assays, cells were subcutaneously injected into the flanks of SCID mice (2×10^6 cells/injection, five mice/group). Tumor growth was monitored weekly using a caliper. While it is not possible to predict the effect size, the sample size of five mice per group was chosen based on experience with xenograft experiments. Mice were randomly allocated to treatment groups. Blinding of the researcher measuring tumor size was employed.
Flow cytometry. […]

[4] = tested on: Robo3-FLAG on A-673 cell surface; assay: Robo3-FLAG cell surface staining in NELL2-silenced cells; assay type: cell-based, human; conditions: A-673 cells; FIG. 2D
Protocol: Immunofluorescence. Cells grown on coverslips were fixed with 4% paraformaldehyde for 15 minutes at room temperature, washed with PBS, and permeabilized with 0.2% pre-chilled Triton-X 100/PBS for 5 minutes. The samples were blocked with culture medium for one hour and incubated with the primary antibody for three hours followed by the secondary antibody for one hour. The following primary antibodies were used: rabbit polyclonal anti-NELL2 (NBP1-82527, Novus Biologicals); mouse monoclonal anti-FLAG M2 (F1804, MilliporeSigma); mouse monoclonal anti-CD133 AC133 (130-090-422, Miltenyi Biotec); rabbit polyclonal anti-FLI1 (ab15289, Abcam); and mouse monoclonal anti-CD99 (MS-1633-P0, Thermo Fisher Scientific). The following secondary antibodies were used: Alexa Fluor 488, goat anti-rabbit IgG (A11034, Thermo Fisher Scientific); Alexa Fluor 568, goat anti-rabbit IgG (A11036, Thermo Fisher Scientific); Alexa Fluor 488, goat anti-mouse IgM (A21042, Thermo Fisher Scientific); and Alexa Fluor 594, goat anti-mouse IgG (A11032, Thermo Fisher Scientific). Nuclei were stained with DAPI. DyLight™ 554 Phalloidin (13054, Cell Signaling Technologies) was used to visualize filopodia.

Row | Molecule | BRG1 and BRM pulled down by biotin-conjugated phalloidin (BAF complexes [1]) | Proliferation inhibition by NELL2 silencing, rescue by recombinant protein (A-673 and EW8 cells) | Proliferation inhibition by NELL2 silencing, rescue by recombinant protein (A-673 and EW8 cells; listed as Recombinant NELL2) | BAF subunit levels in NELL2 siRNA-transfected cells (BAF complexes [2]; A-673 and EW8 cells, recombinant NELL2 250 ng/ml, FIG. 3J) | CD133 and BAF subunit protein levels in the CD133low population (BAF complexes [2]; four or twenty-four hours, FIG. 5B) | BRG1, BAF155, and BAF47 levels after NELL2 silencing in the presence of dasatinib (BAF complexes [2]; recombinant NELL2 250 ng/ml, dasatinib present) | Activation of cdc42 and Rac by NELL2 silencing (cdc42 and Rac; lane 1-3) | Active cdc42 and active Rac in srGAP1- and srGAP2-silenced cells (cdc42 and Rac; lane 4-6) | Size of the BAF complexes after NELL2 silencing (BAF complexes [3]) | Recombinant NELL2 concentration able to rescue the slow growth of the CD133low population (CD133^low population) | Slow growth of the CD133low population (CD133^low population) | Accumulation of Robo3-FLAG on the cell surface after NELL2 silencing [4]
1 | C/C1=C\[C@H](C)C[C@H](C)OC(=O)C[C@H](c2ccc(O)cc2)NC(=O)[C@@H](Cc2c(Br)[nH]c3ccccc23)N(C)C(=O)[C@H](C)NC(=O)[C@@H](C)C1 [Jasplakinolide] | more BRG1 and BRM are pulled down |  |  |  |  |  |  |  |  |  |  | 
2 | B1 |  | rescues proliferation arrest; also recorded: completely rescued | able to rescue the proliferation | restores the protein levels of BAF subunits; also recorded: rescued | increases CD133 and BAF subunits; also recorded: increased CD133, BRG1, BAF250A, BAF155, and BAF47 | rescued | abolished | not affected | largely restored the size | ≥ 250 ng/mL | can be rescued; also recorded: rescues the slow growth | reversed
